# According to the supplement of paper PMC9732359:
# ± gives the uncertainty stated by the source.
# Test: protein stability index of a GFP-peptide fusion (yeast GPS) (PSI 1-4); higher = more stable; sorted into four equal gates, so the index is relative within each strain
# Summary of the method: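 For each peptide, the protein stability index sums the read frequency in every gate after multiplying it by the gate number. Read frequencies came from plasmids that were PCR-amplified from each gate and Illumina-sequenced, with reads assigned to strains by barcodes. The gates were four equal bins of GFP/Cherry fluorescence ratio applied to mid-log yeast in leucine-free medium carrying a pooled library of tiled 17-residue yeast protein peptides fused downstream of GFP on a Cherry-expressing plasmid.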
Sequence,protein stability index (doa10∆),protein stability index (pdr5∆),protein stability index (san1∆),protein stability index (ubr1∆)
MDTSDDAFVATAFATEF [DLS1],2.82 ± 0.07,3.08 ± 0.09,2.75 ± 0.081,2.8 ± 0.044
KTTDHLFDAAFYMKKDA [RPO31],3 ± 0.075,3.21 ± 0.071,3.21 ± 0.05,3.05 ± 0.054
GGSRGGGSNYMSNLPFG [RPC31],2.94 ± 0.27,3.21 ± 0.18,,3.14 ± 0.17
VSQVRVVPNEKADDDSV [ASC1],2.72 ± 0.17,3.11 ± 0.15,3.06 ± 0.11,2.6 ± 0.08
EVNREEAIGFIRGSNKF [SMC3],2.84 ± 0.21,2.77 ± 0.11,2.88 ± 0.14,2.57 ± 0.09
NKYANNDFANNLPKEGD [CSL4],3.14 ± 0.067,3 ± 0.056,2.9 ± 0.065,2.4 ± 0.071
QQQIESNEEQRNLDSAT [SMC3],,,3.43 ± 0.091,
KSDEGGSYLCTSSTPSP [YOR098C/NUP1],3.16 ± 0.065,3.09 ± 0.079,2.7 ± 0.067,3.07 ± 0.06
KTCQWYSEHLKPYDINV [DIS3],2.78 ± 0.28,2.95 ± 0.14,2.74 ± 0.094,2.84 ± 0.072
YAKDILQKEFLPHITQL [RPB2],1.76 ± 0.047,1.8 ± 0.04,1.4 ± 0.065,1.38 ± 0.031
RGNKVNKQIEILTDLVN [ITC1],2.83 ± 0.11,2.75 ± 0.098,2.71 ± 0.11,2.97 ± 0.13
STTAALQSISSLTISLY [RPN7],1.74 ± 0.041,1.82 ± 0.035,1.95 ± 0.049,2.12 ± 0.047
PDVLLSRVINVVRAASS [RRP6],1.26 ± 0.081,1.57 ± 0.066,1.44 ± 0.12,2.17 ± 0.13
CIFNFLQQQTPVTIWLF [SME1],1.18 ± 0.069,1.47 ± 0.066,1.25 ± 0.084,1.15 ± 0.052
SGNNYNDINISSIENNI [MED2],3.01 ± 0.039,3.02 ± 0.036,2.89 ± 0.032,3.151 ± 0.031
TVHKTFEGNVATKAING [PRP8],2.85 ± 0.08,2.22 ± 0.062,1.85 ± 0.065,2.71 ± 0.062
YSAAKKIPDTYTANTSA [YAR002W/NUP60],2.43 ± 0.11,2.19 ± 0.082,2.2 ± 0.077,2.55 ± 0.038
GAVGLKDLTLCRYSCLA [YCS4],2.4 ± 0.095,2.42 ± 0.1,1.94 ± 0.12,2.13 ± 0.085
DYLTLNKVVVNLNDAGL [RPN2],2.73 ± 0.091,3.02 ± 0.08,,3.16 ± 0.06
